From publication PMC11065761 come the findings set out here.

Where two headings read alike, the source gives them in different places.

Assay in all cases: SPR
For experiment [1], the target named is C3b.
Experiment [2] concerns the target C4b (amine coupled).
The target of experiment [3] is C3d (UniProt P01024).
Experiment [4] concerns the target C3b. This is another data set of the same source.
Experiment [5] deals with C4b biotinylated at the free sulfhydryl group of the thioester moiety.

Full-length factor H (FH), sequence (P08603 19-1231): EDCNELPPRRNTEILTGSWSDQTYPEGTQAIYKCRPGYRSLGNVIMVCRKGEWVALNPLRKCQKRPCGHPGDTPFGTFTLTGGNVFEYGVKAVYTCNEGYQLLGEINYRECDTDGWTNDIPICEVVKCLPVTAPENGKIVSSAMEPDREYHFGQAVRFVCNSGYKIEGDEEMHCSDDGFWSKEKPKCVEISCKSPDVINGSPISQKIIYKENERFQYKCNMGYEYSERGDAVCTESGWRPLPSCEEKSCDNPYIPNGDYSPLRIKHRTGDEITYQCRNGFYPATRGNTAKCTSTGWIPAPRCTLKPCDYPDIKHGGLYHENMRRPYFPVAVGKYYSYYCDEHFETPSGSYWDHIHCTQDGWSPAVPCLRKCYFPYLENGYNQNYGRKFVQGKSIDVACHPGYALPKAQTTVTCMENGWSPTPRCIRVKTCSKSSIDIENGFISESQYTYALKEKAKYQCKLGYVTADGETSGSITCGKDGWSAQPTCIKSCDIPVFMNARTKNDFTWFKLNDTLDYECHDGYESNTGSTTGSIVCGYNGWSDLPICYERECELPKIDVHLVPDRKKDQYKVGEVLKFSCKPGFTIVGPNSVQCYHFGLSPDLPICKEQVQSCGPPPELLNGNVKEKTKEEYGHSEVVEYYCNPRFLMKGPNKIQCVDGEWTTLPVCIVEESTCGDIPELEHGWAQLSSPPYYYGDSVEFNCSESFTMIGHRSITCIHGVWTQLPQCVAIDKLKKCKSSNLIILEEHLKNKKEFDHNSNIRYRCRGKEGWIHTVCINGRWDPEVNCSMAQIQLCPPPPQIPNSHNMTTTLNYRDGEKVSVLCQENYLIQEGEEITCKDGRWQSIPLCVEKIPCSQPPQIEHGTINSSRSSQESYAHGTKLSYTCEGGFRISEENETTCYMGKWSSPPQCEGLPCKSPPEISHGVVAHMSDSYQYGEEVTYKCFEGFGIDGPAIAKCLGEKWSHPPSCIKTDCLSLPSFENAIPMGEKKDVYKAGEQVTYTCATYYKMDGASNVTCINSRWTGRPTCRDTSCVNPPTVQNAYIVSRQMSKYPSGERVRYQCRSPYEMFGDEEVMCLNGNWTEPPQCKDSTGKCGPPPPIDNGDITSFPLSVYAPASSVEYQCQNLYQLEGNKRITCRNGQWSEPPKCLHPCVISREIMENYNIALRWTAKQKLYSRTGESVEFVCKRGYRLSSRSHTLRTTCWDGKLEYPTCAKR
C3d, sequence (P01024 1002-1303): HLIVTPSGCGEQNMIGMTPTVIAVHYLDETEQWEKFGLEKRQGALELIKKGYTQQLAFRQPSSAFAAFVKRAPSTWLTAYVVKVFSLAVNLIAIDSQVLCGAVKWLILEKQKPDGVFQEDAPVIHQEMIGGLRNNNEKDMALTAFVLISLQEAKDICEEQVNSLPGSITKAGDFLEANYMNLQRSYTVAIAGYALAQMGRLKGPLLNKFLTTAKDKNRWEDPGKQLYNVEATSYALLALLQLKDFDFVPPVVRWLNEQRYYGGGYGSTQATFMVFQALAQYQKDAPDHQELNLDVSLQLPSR

As for “TriFu_6G (triple fusion complement inhibitor, 6 glycine residues between DAF and FH)”, the Kd in experiment [1] is 59 nM; in experiment [2], 865 nM; in experiment [3], 22000 nM; in experiment [4] it was 50 nM; in experiment [5], 643 nM.
In turn, “DAF(1–4)FH(19–20)-SL (short linker, "GPGG")” displayed a Kd in experiment [4] of 125 nM. In other words, the sub-micromolar range.
For the substance “DAF(1–4), the first four CCP domains of decay accelerating factor (domain or fragment)”, the results for the Kd in experiment [4] and in experiment [5] were 11000 nM and 17600 nM, respectively.
In experiment [4], “FH(19–20), the two C-terminal CCP domains of factor H (domain or fragment)” yielded a Kd of 4700 nM.
Turning to “TriFu_13G (triple fusion complement inhibitor, 13 glycine residues between DAF and FH)”, the Kd in experiment [1] turned out to be 25 nM.
The substance “DAF(1–4)FH(19–20)-LL (long linker, polyglycine linker of 13 residues)” displayed a Kd in experiment [4] of 175 nM.
Consider “CR1(15–17), the middle CCP domains 15 to 17 of complement receptor 1 (domain or fragment)”, for which the figures for the Kd in experiment [4] and in experiment [5] were 900 nM and 7800 nM, respectively.
For the substance “Full-length factor H (FH) (from UniProt P08603 19-1231) (natural protein)”, the Kd in experiment [1] came to 802 nM.

For orientation: Kd means the constant that tells how readily two partners part at equilibrium. A lower Kd goes with higher affinity.
